To fix the notation:
B1: equine IgG1 Y436N (antibody, part only; not given: variable domains, not shown: another chain or arm of the molecule)
constant: ASTTAPKVFALAPGCGTTSDSTVALGCLVSGYFPEPVKVSWNSGSLTSGVHTFPSVLQSSGFYSLSSMVTVPASTWTSETYICNVVHAASNFKVDKRIEPIPDNHQKVCDMSKCPKCPAPELLGGPSVFIFPPNPKDTLMITRTPEVTCVVVDVSQENPDVKFNWYMDGVEVRTATTRPKEEQFNSTYRVVSVLRIQHQDWLSGKEFKCKVNNQALPQPIERTITKTKGRSQEPQVYVLAPHPDELSKSKVSVTCLVKDFYPPEINIEWQSNGQPELETKYSTTQAQQDSDGSYFLYSKLSVDRNRWQQGTTFTCGVMHEALHNHNTQKNVSKNPGK
B2: equine IgG1 T286G (antibody, part only; not given: variable domains, not shown: another chain or arm of the molecule)
constant: ASTTAPKVFALAPGCGTTSDSTVALGCLVSGYFPEPVKVSWNSGSLTSGVHTFPSVLQSSGFYSLSSMVTVPASTWTSETYICNVVHAASNFKVDKRIEPIPDNHQKVCDMSKCPKCPAPELLGGPSVFIFPPNPKDTLMITRTPEVTCVVVDVSQENPDVKFNWYMDGVEVRGATTRPKEEQFNSTYRVVSVLRIQHQDWLSGKEFKCKVNNQALPQPIERTITKTKGRSQEPQVYVLAPHPDELSKSKVSVTCLVKDFYPPEINIEWQSNGQPELETKYSTTQAQQDSDGSYFLYSKLSVDRNRWQQGTTFTCGVMHEALHNHYTQKNVSKNPGK
B3: equine IgG1 Y436Q (antibody, part only; not given: variable domains, not shown: another chain or arm of the molecule)
constant: ASTTAPKVFALAPGCGTTSDSTVALGCLVSGYFPEPVKVSWNSGSLTSGVHTFPSVLQSSGFYSLSSMVTVPASTWTSETYICNVVHAASNFKVDKRIEPIPDNHQKVCDMSKCPKCPAPELLGGPSVFIFPPNPKDTLMITRTPEVTCVVVDVSQENPDVKFNWYMDGVEVRTATTRPKEEQFNSTYRVVSVLRIQHQDWLSGKEFKCKVNNQALPQPIERTITKTKGRSQEPQVYVLAPHPDELSKSKVSVTCLVKDFYPPEINIEWQSNGQPELETKYSTTQAQQDSDGSYFLYSKLSVDRNRWQQGTTFTCGVMHEALHNHQTQKNVSKNPGK
B4: equine IgG1 Y436V (antibody, part only; not given: variable domains, not shown: another chain or arm of the molecule)
constant: ASTTAPKVFALAPGCGTTSDSTVALGCLVSGYFPEPVKVSWNSGSLTSGVHTFPSVLQSSGFYSLSSMVTVPASTWTSETYICNVVHAASNFKVDKRIEPIPDNHQKVCDMSKCPKCPAPELLGGPSVFIFPPNPKDTLMITRTPEVTCVVVDVSQENPDVKFNWYMDGVEVRTATTRPKEEQFNSTYRVVSVLRIQHQDWLSGKEFKCKVNNQALPQPIERTITKTKGRSQEPQVYVLAPHPDELSKSKVSVTCLVKDFYPPEINIEWQSNGQPELETKYSTTQAQQDSDGSYFLYSKLSVDRNRWQQGTTFTCGVMHEALHNHVTQKNVSKNPGK
B5: equine IgG1 Y436S (antibody, part only; not given: Variable domains, not shown: another chain or arm of the molecule)
constant: ASTTAPKVFALAPGCGTTSDSTVALGCLVSGYFPEPVKVSWNSGSLTSGVHTFPSVLQSSGFYSLSSMVTVPASTWTSETYICNVVHAASNFKVDKRIEPIPDNHQKVCDMSKCPKCPAPELLGGPSVFIFPPNPKDTLMITRTPEVTCVVVDVSQENPDVKFNWYMDGVEVRTATTRPKEEQFNSTYRVVSVLRIQHQDWLSGKEFKCKVNNQALPQPIERTITKTKGRSQEPQVYVLAPHPDELSKSKVSVTCLVKDFYPPEINIEWQSNGQPELETKYSTTQAQQDSDGSYFLYSKLSVDRNRWQQGTTFTCGVMHEALHNHSTQKNVSKNPGK
B6: equine IgG1 Y436T (antibody, part only; not given: variable domains, not shown: another chain or arm of the molecule)
constant: ASTTAPKVFALAPGCGTTSDSTVALGCLVSGYFPEPVKVSWNSGSLTSGVHTFPSVLQSSGFYSLSSMVTVPASTWTSETYICNVVHAASNFKVDKRIEPIPDNHQKVCDMSKCPKCPAPELLGGPSVFIFPPNPKDTLMITRTPEVTCVVVDVSQENPDVKFNWYMDGVEVRTATTRPKEEQFNSTYRVVSVLRIQHQDWLSGKEFKCKVNNQALPQPIERTITKTKGRSQEPQVYVLAPHPDELSKSKVSVTCLVKDFYPPEINIEWQSNGQPELETKYSTTQAQQDSDGSYFLYSKLSVDRNRWQQGTTFTCGVMHEALHNHTTQKNVSKNPGK
B7: equine IgG1 Y436W (antibody, part only; not given: Variable domains, not shown: another chain or arm of the molecule)
constant: ASTTAPKVFALAPGCGTTSDSTVALGCLVSGYFPEPVKVSWNSGSLTSGVHTFPSVLQSSGFYSLSSMVTVPASTWTSETYICNVVHAASNFKVDKRIEPIPDNHQKVCDMSKCPKCPAPELLGGPSVFIFPPNPKDTLMITRTPEVTCVVVDVSQENPDVKFNWYMDGVEVRTATTRPKEEQFNSTYRVVSVLRIQHQDWLSGKEFKCKVNNQALPQPIERTITKTKGRSQEPQVYVLAPHPDELSKSKVSVTCLVKDFYPPEINIEWQSNGQPELETKYSTTQAQQDSDGSYFLYSKLSVDRNRWQQGTTFTCGVMHEALHNHWTQKNVSKNPGK
B8: equine IgG1 Y436R (antibody, part only; not given: variable domains, not shown: another chain or arm of the molecule)
constant: ASTTAPKVFALAPGCGTTSDSTVALGCLVSGYFPEPVKVSWNSGSLTSGVHTFPSVLQSSGFYSLSSMVTVPASTWTSETYICNVVHAASNFKVDKRIEPIPDNHQKVCDMSKCPKCPAPELLGGPSVFIFPPNPKDTLMITRTPEVTCVVVDVSQENPDVKFNWYMDGVEVRTATTRPKEEQFNSTYRVVSVLRIQHQDWLSGKEFKCKVNNQALPQPIERTITKTKGRSQEPQVYVLAPHPDELSKSKVSVTCLVKDFYPPEINIEWQSNGQPELETKYSTTQAQQDSDGSYFLYSKLSVDRNRWQQGTTFTCGVMHEALHNHRTQKNVSKNPGK
B9: equine IgG4 WT (antibody, part only; not given: Variable domains; allotype unconfirmed, not shown: another chain or arm of the molecule)
constant: ASTTAPKVFPLASHSAATSGSTVALGCLVSSYFPEPVTVSWNSGALTSGVHTFPSVLQSSGLYSLSSMVTVPASSLKSQTYICNVAHPASSTKVDKKIVIKECNGGCPAECLQVGPSVFIFPPKPKDVLMISRTPTVTCVVVDVGHDFPDVQFNWYVDGVETHTATTEPKQEQFNSTYRVVSVLPIQHKDWLSGKEFKCKVNNKALPAPVERTISKPTGQPREPQVYVLAPHRDELSKNKVSVTCLVKDFYPTDIDIEWKSNGQPEPETKYSTTPAQLDSDGSYFLYSKLTVETNRWQQGTTFTCAVMHEALHNHYTEKSVSKSPGK
B10: equine IgG4 K311A (antibody, part only; not given: variable domains, not shown: another chain or arm of the molecule)
constant: ASTTAPKVFPLASHSAATSGSTVALGCLVSSYFPEPVTVSWNSGALTSGVHTFPSVLQSSGLYSLSSMVTVPASSLKSQTYICNVAHPASSTKVDKKIVIKECNGGCPAECLQVGPSVFIFPPKPKDVLMISRTPTVTCVVVDVGHDFPDVQFNWYVDGVETHTATTEPKQEQFNSTYRVVSVLPIQHADWLSGKEFKCKVNNKALPAPVERTISKPTGQPREPQVYVLAPHRDELSKNKVSVTCLVKDFYPTDIDIEWKSNGQPEPETKYSTTPAQLDSDGSYFLYSKLTVETNRWQQGTTFTCAVMHEALHNHYTEKSVSKSPGK
B11: equine IgG4 K311C (antibody, part only; not given: variable domains, not shown: another chain or arm of the molecule; small tags and cut ends)
constant: ASTTAPKVFPLASHSAATSGSTVALGCLVSSYFPEPVTVSWNSGALTSGVHTFPSVLQSSGLYSLSSMVTVPASSLKSQTYICNVAHPASSTKVDKKIVIKECNGGCPAECLQVGPSVFIFPPKPKDVLMISRTPTVTCVVVDVGHDFPDVQFNWYVDGVETHTATTEPKQEQFNSTYRVVSVLPIQHCDWLSGKEFKCKVNNKALPAPVERTISKPTGQPREPQVYVLAPHRDELSKNKVSVTCLVKDFYPTDIDIEWKSNGQPEPETKYSTTPAQLDSDGSYFLYSKLTVETNRWQQGTTFTCAVMHEALHNHYTEKSVSKSPGK

For the experiment, the target named is equine FcRn (large alpha subunit p51) / equine beta-2-microglobulin complex, biotinylated (equine) (UniProt P30441). Nature of the experiment: SPR (Biacore), pH 6.
UniProt P30441, sequence (P30441 21-118, one chain of several): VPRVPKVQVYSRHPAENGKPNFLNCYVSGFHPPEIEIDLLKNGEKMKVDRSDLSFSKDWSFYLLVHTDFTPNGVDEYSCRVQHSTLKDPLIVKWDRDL
Usually Kd stands for the free concentration of one partner at which half of the binding sites on the other are occupied at equilibrium, for simple one-to-one binding. With B1, the Kd is 0.0231 µM.

For B2, the Kd is 0.015 µM.

The molecule B3 registered a Kd of 0.0146 µM.

In turn, B4 gave a Kd of 0.00906 µM. This Kd lies about 1.6-fold lower than the previous one.

As for B5, the Kd was found to be 0.0135 µM.

For B6, the Kd came out at 0.0152 µM.

B7 came in with a Kd of 0.0102 µM.

B8 had an equilibrium dissociation constant (Kd) of 0.0256 µM.

Regarding B9, the Kd was 0.0225 µM. The Kd values of the last two molecules are within 1.5-fold of each other.

The molecule B10 yielded a dissociation constant Kd of 0.0248 µM. The Kd values of the last two molecules are within 1.5-fold of each other.

The molecule B11 gave a Kd of 0.0235 µM.

The record behind these values is US20260070987A1.
